Our source for the kapp ratio vs G399V/G714K (B1) and activity relative to G399V/G714K (B1) values is US20120237496.

Positions count from the first letter of the chain named.

T1: Peptide-6b
T1 chain: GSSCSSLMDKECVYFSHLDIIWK

T2: Peptide-5 (not fully specified)
T2 chain: CDRVYIHPFHLK

T3: Peptide-6a
T3 chain: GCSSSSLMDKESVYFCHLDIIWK

T4: Peptide-13 (not fully specified)
T4 chain: CRPPGFSPFRK

T5: Peptide-3
T5 chain: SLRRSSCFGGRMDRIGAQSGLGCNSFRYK

T6: Peptide-8 (not fully specified)
T6 chain: CQLYENKPRRPYILK

B1: C1 (protein)
chain: YPYDVPDYAYPYDVPDYAYPYDVPDYAGSYDDGICKSSDCIKSAARLIQNMDATTEPCTDFFKYACGGWLKRNVIPETSSRYGNFDILRDELEVVLKDVLQEPKTEDIVAVQKAKALYRSCINESAIDSRGGEPLLKLLPDIYGWPVATENWEQKYGASWTAEKAIAQLNSKYGKKVLINLFVGTDDKNSVNHVIHIDQPRLGLPSRDYYECTGIYKEACTAYVDFMISVARLIRQEERLPIDENQLALEMNKVMELEKEIANATAKPEDRNDPMLLYNKMTLAQIQNNFSLEINGKPFSWLNFTNEIMSTVNISITNEEDVVVYAPEYLTKLKPILTKYSARDLQNLMSWRFIMDLVSSLSRTYKESRNAFRKALYVTTSETATWRRCANYVNGNMMNAVGRLYVEAAFAGESKHVVEDLIAQIREVFIQTLDDLTWMDAETKKRAEEKALAIKERIGYPDDIVSNDNKLNNEYLELNYKEDEYFENIIQNLKFSQSKQLKKLREKVDKDEWISGAAVVNAFYSSGRNQIVFPAGILQPPFFSAQQSNSLNYGGIGMVIGHEITHGFDDNGRNFNKDGDLVDWWTQQSASNFKEQSQCMVYQYGNFSWDLAGGQHLNGINTLGENIADNGGLGQAYRAYQNYIKKNGEEKLLPGLDLNHKQLFFLNFAQVWCGTYRPEYAVNSIKTVVHSPKNFRIIGTLQNSAEFSEAFHCRKNSYMNPEKKCRVW
B2: C2 (protein)
chain: B1 chain with S206R, R207G, F226L, D569F, F575P, G579D, V688D
B3: C6 (protein)
chain: B1 chain with S206R, R207G, D569M, G572V, G579V, V688D
B4: C7 (protein)
chain: B1 chain with S206R, R207G, M398E, D569F, G572V, G579L, V688D
B5: C5 (protein)
chain: B1 chain with S206R, R207G, D569F, F575P, G579D, V688D
B6: C3 (protein)
chain: B1 chain with S206R, R207G, F226L, M398E, D569F, F575P, G579D, V688D
B7: C4 (protein)
chain: B1 chain with S206R, R207G, D569F, G572V, G579V, V688D
B8: D10 (protein)
chain: B1 chain with S206R, F226L, A266S, D356G, D569M, G572V, F575P, G579D, G624Q, V688D
B9: D7 (protein)
chain: B1 chain with S206R, F226L, D356G, D569M, G572V, F575P, G579D, V688D
B10: D4 (protein)
chain: B1 chain with A266S, D356G, D569F, F575P, G579D, V688D
B11: D8 (protein)
chain: B1 chain with S206R, F226L, D569M, G572V, F575P, G579D, G624Q, V688D
B12: D9 (protein)
chain: B1 chain with S206R, F226L, A266S, D356G, D569M, G572V, F575P, G579D, V688D
B13: D6 (protein)
chain: B1 chain with S206R, F226L, A266S, D569M, G572V, F575P, G579D, V688D
B14: D3 (protein)
chain: B1 chain with D569F, F575P, G579D, G624Q, V688D
B15: D5 (protein)
chain: B1 chain with A266S, D356G, D569F, F575P, G579D, G624Q, V688D

In the first series the target is T1, Peptide-6b.
As to B1, the kapp ratio vs G399V/G714K (B1) worked out at 0.76 fold.
The same measure, in the same setting: with B2 the figure was 0.1 fold; with B3, 0.19 fold; with B4, 0.28 fold.
Same read-out and setting: in the case of B5 it was 0.18 fold; in that of B6, 0.09 fold; in that of B7, 0.29 fold.

Another series addresses Peptide-1.
For the protein B1, the activity relative to G399V/G714K (B1) was 1.14 fold and the kapp ratio vs G399V/G714K (B1) was 1.28 fold.
Protein B8 came in with an activity relative to G399V/G714K (B1) of 1.33 fold.
B9: the activity relative to G399V/G714K (B1) is 0.88 fold.
As for B2, the kapp ratio vs G399V/G714K (B1) is 1.06 fold.
Same read-out and setting: with B3 the figure was 2.35 fold; with B4, 2.77 fold.
In turn, B10 gave an activity relative to G399V/G714K (B1) of 2.43 fold.
On the same count and under the same terms, in the case of B11 it was 2.58 fold.
For B5, the kapp ratio vs G399V/G714K (B1) came out at 1.95 fold.
Take B6: the kapp ratio vs G399V/G714K (B1) came to 0.86 fold.
B12 showed an activity relative to G399V/G714K (B1) of 1.07 fold.
On the same count and under the same terms, in the case of B13 it was 2.24 fold.
Regarding B7, the kapp ratio vs G399V/G714K (B1) is 2.41 fold.
Protein B14 yielded an activity relative to G399V/G714K (B1) of 3.11 fold.
On the same count and under the same terms, with B15 the figure was 2.94 fold.

A further series has as its target T2, Peptide-5.
Turning to B1, the activity relative to G399V/G714K (B1) came to 0.86 fold and the kapp ratio vs G399V/G714K (B1) was found to be 1.02 fold.
B8 returned an activity relative to G399V/G714K (B1) of 0.08 fold.
Protein B9 registered an activity relative to G399V/G714K (B1) of 0.09 fold.
Consider B2, for which the kapp ratio vs G399V/G714K (B1) was 0.19 fold.
B3: the kapp ratio vs G399V/G714K (B1) turned out to be 0.29 fold.
Still for that read-out and setting: in the case of B4 it was 0.34 fold.
On to B10, for which the activity relative to G399V/G714K (B1) came out at 0.08 fold.
Same read-out and setting: in the case of B11 it was 0.09 fold.
On to B5, for which the kapp ratio vs G399V/G714K (B1) worked out at 0.22 fold.
As for B6, the kapp ratio vs G399V/G714K (B1) turned out to be 0.15 fold.
In the case of B12, the activity relative to G399V/G714K (B1) was determined as 0.08 fold.
Take B13: the activity relative to G399V/G714K (B1) amounted to 0.08 fold.
Regarding B7, the kapp ratio vs G399V/G714K (B1) was determined as 0.27 fold.
Regarding B14, the activity relative to G399V/G714K (B1) was found to be 0.1 fold.
The same measure, in the same setting: in the case of B15 it was 0.08 fold.

For another series, the target named is Peptide-2.
For the protein B1, the activity relative to G399V/G714K (B1) amounted to 1.12 fold and the kapp ratio vs G399V/G714K (B1) amounted to 1.23 fold.
On to B8, for which the activity relative to G399V/G714K (B1) worked out at 1.26 fold.
For the protein B9, the activity relative to G399V/G714K (B1) came to 1.18 fold.
As to B2, the kapp ratio vs G399V/G714K (B1) was 0.88 fold.
As to B3, the kapp ratio vs G399V/G714K (B1) stood at 2.36 fold.
On the same count and under the same terms, in the case of B4 it was 2.83 fold.
B10 displayed an activity relative to G399V/G714K (B1) of 2.71 fold.
Protein B11 came in with an activity relative to G399V/G714K (B1) of 2.66 fold.
Turning to B5, the kapp ratio vs G399V/G714K (B1) is 1.92 fold.
In the case of B6, the kapp ratio vs G399V/G714K (B1) is 0.81 fold.
B12 registered an activity relative to G399V/G714K (B1) of 1.11 fold.
In turn, B13 registered an activity relative to G399V/G714K (B1) of 2.37 fold.
As to B7, the kapp ratio vs G399V/G714K (B1) was found to be 2.43 fold.
B14 returned an activity relative to G399V/G714K (B1) of 3.42 fold.
Same read-out and setting: with B15 the figure was 3.37 fold.

The next series concerns the target Peptide-4.
As to B1, the activity relative to G399V/G714K (B1) worked out at 1.1 fold and the kapp ratio vs G399V/G714K (B1) was found to be 0.51 fold.
B8 gave an activity relative to G399V/G714K (B1) of 0.84 fold.
Same read-out and setting: in the case of B9 it was 0.91 fold.
In the case of B2, the kapp ratio vs G399V/G714K (B1) was determined as 0.72 fold.
With B3, the kapp ratio vs G399V/G714K (B1) worked out at 1.26 fold.
For B4, the kapp ratio vs G399V/G714K (B1) is 0.96 fold.
B10 registered an activity relative to G399V/G714K (B1) of 0.91 fold.
The same measure, in the same setting: in the case of B11 it was 0.95 fold.
Consider B5, for which the kapp ratio vs G399V/G714K (B1) worked out at 0.74 fold.
Still for that read-out and setting: with B6 the figure was 0.79 fold.
Regarding B12, the activity relative to G399V/G714K (B1) stood at 0.86 fold.
B13 had an activity relative to G399V/G714K (B1) of 0.89 fold.
For B7, the kapp ratio vs G399V/G714K (B1) was 0.44 fold.
With B14, the activity relative to G399V/G714K (B1) was 1.04 fold.
Consider B15, for which the activity relative to G399V/G714K (B1) came to 0.9 fold.

The target of another series is T3, Peptide-6a.
Regarding B1, the activity relative to G399V/G714K (B1) was 0.76 fold and the kapp ratio vs G399V/G714K (B1) amounted to 0.97 fold.
B8 came in with an activity relative to G399V/G714K (B1) of 0.08 fold.
Still for that read-out and setting: in the case of B9 it was 0.13 fold.
As to B2, the kapp ratio vs G399V/G714K (B1) worked out at 0.14 fold.
Still for that read-out and setting: in the case of B3 it was 0.28 fold; in that of B4, 0.42 fold.
As to B10, the activity relative to G399V/G714K (B1) was found to be 0.28 fold.
Consider B11, for which the activity relative to G399V/G714K (B1) amounted to 0.44 fold.
Consider B5, for which the kapp ratio vs G399V/G714K (B1) came out at 0.23 fold.
Still for that read-out and setting: in the case of B6 it was 0.18 fold.
Consider B12, for which the activity relative to G399V/G714K (B1) turned out to be 0.06 fold.
Still for that read-out and setting: in the case of B13 it was 0.35 fold.
In the case of B7, the kapp ratio vs G399V/G714K (B1) was determined as 0.37 fold.
For B14, the activity relative to G399V/G714K (B1) was found to be 0.47 fold.
Consider B15, for which the activity relative to G399V/G714K (B1) was determined as 0.35 fold.

A further series concerns the target T4, Peptide-13.
For the protein B1, the kapp ratio vs G399V/G714K (B1) was 0.52 fold.
B2: the kapp ratio vs G399V/G714K (B1) was 0.68 fold.
For B3, the kapp ratio vs G399V/G714K (B1) was determined as 0.85 fold.
In the case of B4, the kapp ratio vs G399V/G714K (B1) turned out to be 0.43 fold.
Same read-out and setting: in the case of B5 it was 0.63 fold; in that of B6, 0.85 fold; in that of B7, 0.62 fold.

Another series has as its target T5, Peptide-3.
Consider B1, for which the kapp ratio vs G399V/G714K (B1) turned out to be 0.36 fold.
B2: the kapp ratio vs G399V/G714K (B1) came to 0.24 fold.
In the case of B3, the kapp ratio vs G399V/G714K (B1) came to 0.24 fold.
Consider B4, for which the kapp ratio vs G399V/G714K (B1) came to 0.24 fold.
For the protein B5, the kapp ratio vs G399V/G714K (B1) was determined as 0.24 fold.
Still for that read-out and setting: with B6 the figure was 0.24 fold; with B7, 0.24 fold.

Another series addresses Peptide-7.
With B1, the activity relative to G399V/G714K (B1) was 0.96 fold and the kapp ratio vs G399V/G714K (B1) was 0.9 fold.
On to B8, for which the activity relative to G399V/G714K (B1) was 0.33 fold.
Same read-out and setting: in the case of B9 it was 0.66 fold.
Regarding B2, the kapp ratio vs G399V/G714K (B1) came out at 0.47 fold.
B3: the kapp ratio vs G399V/G714K (B1) was found to be 0.61 fold.
B4: the kapp ratio vs G399V/G714K (B1) was determined as 0.47 fold.
As to B10, the activity relative to G399V/G714K (B1) was found to be 0.51 fold.
In turn, B11 yielded an activity relative to G399V/G714K (B1) of 0.82 fold.
For B5, the kapp ratio vs G399V/G714K (B1) came to 0.72 fold.
For the protein B6, the kapp ratio vs G399V/G714K (B1) amounted to 0.64 fold.
The protein B12 yielded an activity relative to G399V/G714K (B1) of 0.43 fold.
For B13, the activity relative to G399V/G714K (B1) worked out at 0.68 fold.
Consider B7, for which the kapp ratio vs G399V/G714K (B1) amounted to 0.44 fold.
On to B14, for which the activity relative to G399V/G714K (B1) turned out to be 0.95 fold.
For B15, the activity relative to G399V/G714K (B1) worked out at 0.9 fold.

In another series the target is T6, Peptide-8.
With B1, the kapp ratio vs G399V/G714K (B1) turned out to be 0.62 fold.
Consider B2, for which the kapp ratio vs G399V/G714K (B1) turned out to be 0.34 fold.
The same measure, in the same setting: with B3 the figure was 0.37 fold.
Same read-out and setting: in the case of B4 it was 0.46 fold; in that of B5, 0.41 fold; in that of B6, 0.37 fold.
With B7, the kapp ratio vs G399V/G714K (B1) amounted to 0.4 fold.
